{
  "source": "patent US20210198328A1",
  "about": "“MODULATED CAS-INHIBITORS” (Universität Heidelberg, priority 2017, published 2021)",
  "test_system": "dCas9-3xRFP",
  "assay": "Telomere labeling, automated image analysis",
  "type": "cell-based, Streptococcus pyogenes",
  "conditions": "U2OS, light or dark 20 h",
  "procedure": "U2OS cells were seeded into 4-compartment CELLview cell culture dishes (Greiner Bio-One) at a density of 30,000 cells per compartment. The next day, cells were transfected with vectors encoding (i) a CMV promoter-driven dCas9-3xRFP-P2A-CASANOVA and a U6 promoter-driven telomere-targeting gRNA, (ii) a telomere-targeting gRNA and GFP transfection marker, and (iii) a CMV promoter-driven CASANOVA in a ratio of 20:6:3 using 362.5 ng total DNA and 1.5 μl JetPrime for transfection (per compartment).\nIn the positive control samples, vector i was replaced by a vector encoding dCas9-3xRFP (without the P2A-CASANOVA) and a U6 promoter-driven telomere-targeting RNA, and vector iii was replaced by an irrelevant DNA. […] SlowFade™ Diamond Antifade Mountant with DAPI (Invitrogen) was added and imaging was performed using the aforementioned microscopy setup and the following excitation/detection settings: 405 nm (1% laser powerV410-490 nm for DAPI, 488 nm (2% laser power)/493-578 nm for GFP, or 552 nm (1% laser power)/578-789 nm for RFP. RFP fluorescent spots (i.e., labeled telomeres) were then detected and quantified using a fully automated image analysis pipeline as follows. The ImageJ2 (beta) Integration in KNIME Version 3.5.2 (KNIME AG) was used to create an automated image processing and analysis pipeline employed for quantification of labeled telomeres. […]",
  "data": [
    {"molecule": "AcrIIA4: anti-CRISPR polypeptide of a Listeria monocytogenes prophage, SEQ ID NO: 1 (protein, Listeria monocytogenes) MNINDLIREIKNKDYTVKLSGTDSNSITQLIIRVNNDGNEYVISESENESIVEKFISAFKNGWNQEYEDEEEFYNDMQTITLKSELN", "values": [
      {"measurement": "telomere labeling, light-independent", "result": "weak"}
    ]}
  ]
}
